The text below walks through data of patent US20230135471A1, “UBIQUITIN VARIANTS WITH IMPROVED AFFINITY FOR 53BP1” (Integrated DNA Technologies, Inc., priority 2021, published 2023).

The target in this assay is 53BP1 fragment (a.a. 1221-1718) fused to an adenylate cyclase fragment (two-hybrid) (UniProt Q12888). Nature of the assay: cell-based or functional assay.
“i53 + A28D two-hybrid fusion (designed binder)” had an Experiment 1 Average Enrichment of 0.02 log2, an Experiment 1 Rep 1 Enrichment of -0.25 log2, an Experiment 1 Rep 2 Enrichment of 0.29 log2 and an Experiment 2 Average Enrichment of -0.41 log2. In addition, the Experiment 2 Rep 1 Enrichment was -0.24 log2 and the Experiment 2 Rep 2 Enrichment was -0.58 log2.
“i53 + A28E two-hybrid fusion (designed binder)”: the Experiment 1 Average Enrichment amounted to 0.31 log2, the Experiment 1 Rep 1 Enrichment is 0.23 log2, the Experiment 1 Rep 2 Enrichment was 0.4 log2 and the Experiment 2 Average Enrichment was determined as 0.42 log2. For the same substance, the Experiment 2 Rep 1 Enrichment is 0.53 log2 and the Experiment 2 Rep 2 Enrichment came out at 0.32 log2.
For “i53 + A28I two-hybrid fusion (designed binder)”, the Experiment 1 Average Enrichment was found to be 0.05 log2, the Experiment 1 Rep 1 Enrichment was -0.45 log2, the Experiment 1 Rep 2 Enrichment came out at 0.56 log2 and the Experiment 2 Average Enrichment came out at 0.05 log2. Further, the Experiment 2 Rep 1 Enrichment is 0.37 log2 and the Experiment 2 Rep 2 Enrichment is -0.28 log2.
Substance “i53 + A28M two-hybrid fusion (designed binder)” yielded an Experiment 1 Average Enrichment of 0.03 log2, an Experiment 1 Rep 1 Enrichment of 0.49 log2, an Experiment 1 Rep 2 Enrichment of -0.42 log2 and an Experiment 2 Average Enrichment of -0.19 log2. This substance yielded an Experiment 2 Rep 1 Enrichment of -0.51 log2 and an Experiment 2 Rep 2 Enrichment of 0.12 log2.
Turning to “i53 + A28Q two-hybrid fusion (designed binder)”, the Experiment 1 Average Enrichment was 0.44 log2, the Experiment 1 Rep 1 Enrichment was found to be 0.47 log2, the Experiment 1 Rep 2 Enrichment turned out to be 0.42 log2 and the Experiment 2 Average Enrichment came to 0.14 log2. This substance had an Experiment 2 Rep 1 Enrichment of 0.59 log2 and an Experiment 2 Rep 2 Enrichment of -0.31 log2.
For “i53 + A28W two-hybrid fusion (designed binder)”, the Experiment 1 Average Enrichment amounted to 0.03 log2, the Experiment 1 Rep 1 Enrichment is 0.48 log2, the Experiment 1 Rep 2 Enrichment was -0.41 log2 and the Experiment 2 Average Enrichment stood at 0.12 log2. The same substance yielded an Experiment 2 Rep 1 Enrichment of 0.41 log2 and an Experiment 2 Rep 2 Enrichment of -0.17 log2.
“i53 + A46G two-hybrid fusion (designed binder)” showed an Experiment 1 Average Enrichment of 0.6 log2, an Experiment 1 Rep 1 Enrichment of 0.48 log2, an Experiment 1 Rep 2 Enrichment of 0.72 log2 and an Experiment 2 Average Enrichment of -0.17 log2. The Experiment 2 Rep 1 Enrichment is 1.37 log2 and the Experiment 2 Rep 2 Enrichment is -1.71 log2.
“i53 + D21E two-hybrid fusion (designed binder)” yielded an Experiment 1 Average Enrichment of 0.51 log2, an Experiment 1 Rep 1 Enrichment of 0.2 log2, an Experiment 1 Rep 2 Enrichment of 0.82 log2 and an Experiment 2 Average Enrichment of -0.23 log2. The substance further showed an Experiment 2 Rep 1 Enrichment of -0.63 log2 and an Experiment 2 Rep 2 Enrichment of 0.16 log2.
For “i53 + D32A two-hybrid fusion (designed binder)”, the Experiment 1 Average Enrichment is 0.11 log2, the Experiment 1 Rep 1 Enrichment was 0.2 log2, the Experiment 1 Rep 2 Enrichment was 0.02 log2 and the Experiment 2 Average Enrichment was found to be 0.19 log2. This substance showed an Experiment 2 Rep 1 Enrichment of 0.19 log2 and an Experiment 2 Rep 2 Enrichment of 0.19 log2.
In turn, “i53 + D32E two-hybrid fusion (designed binder)” showed an Experiment 1 Average Enrichment of 0.21 log2, an Experiment 1 Rep 1 Enrichment of 0.41 log2, an Experiment 1 Rep 2 Enrichment of 0 log2 and an Experiment 2 Average Enrichment of -0.19 log2. The same substance registered an Experiment 2 Rep 1 Enrichment of -0.11 log2 and an Experiment 2 Rep 2 Enrichment of -0.28 log2.
The substance “i53 + D32R two-hybrid fusion (designed binder)” displayed an Experiment 1 Average Enrichment of 0.03 log2, an Experiment 1 Rep 1 Enrichment of 0.61 log2, an Experiment 1 Rep 2 Enrichment of -0.54 log2 and an Experiment 2 Average Enrichment of -0.46 log2. Also, the Experiment 2 Rep 1 Enrichment was -0.53 log2 and the Experiment 2 Rep 2 Enrichment was -0.39 log2.
“i53 + D39E two-hybrid fusion (designed binder)” displayed an Experiment 1 Average Enrichment of 0.36 log2, an Experiment 1 Rep 1 Enrichment of 0.29 log2, an Experiment 1 Rep 2 Enrichment of 0.44 log2 and an Experiment 2 Average Enrichment of -0.18 log2. Besides, the Experiment 2 Rep 1 Enrichment was -0.14 log2 and the Experiment 2 Rep 2 Enrichment is -0.23 log2.
On to “i53 + D39G two-hybrid fusion (designed binder)”, for which the Experiment 1 Average Enrichment is -0.21 log2, the Experiment 1 Rep 1 Enrichment was -0.2 log2, the Experiment 1 Rep 2 Enrichment is -0.22 log2 and the Experiment 2 Average Enrichment turned out to be 0.06 log2. The substance also gave an Experiment 2 Rep 1 Enrichment of 0.6 log2 and an Experiment 2 Rep 2 Enrichment of -0.49 log2.
With “i53 + D39L two-hybrid fusion (designed binder)”, the Experiment 1 Average Enrichment was determined as 0.06 log2, the Experiment 1 Rep 1 Enrichment was 0.49 log2, the Experiment 1 Rep 2 Enrichment is -0.38 log2 and the Experiment 2 Average Enrichment was -2.16 log2. This substance registered an Experiment 2 Rep 1 Enrichment of -2.9 log2 and an Experiment 2 Rep 2 Enrichment of -1.42 log2.
Regarding “i53 + D39Q two-hybrid fusion (designed binder)”, the Experiment 1 Average Enrichment is -2.78 log2, the Experiment 1 Rep 1 Enrichment was -3.1 log2, the Experiment 1 Rep 2 Enrichment was -2.46 log2 and the Experiment 2 Average Enrichment is 0.03 log2. Also, the Experiment 2 Rep 1 Enrichment is -0.45 log2 and the Experiment 2 Rep 2 Enrichment is 0.51 log2.
For “i53 + D39S two-hybrid fusion (designed binder)”, the Experiment 1 Average Enrichment is -1.51 log2, the Experiment 1 Rep 1 Enrichment is -2.04 log2, the Experiment 1 Rep 2 Enrichment was -0.99 log2 and the Experiment 2 Average Enrichment worked out at 0.04 log2. The substance also displayed an Experiment 2 Rep 1 Enrichment of 0.16 log2 and an Experiment 2 Rep 2 Enrichment of -0.08 log2.
Turning to “i53 + D39W two-hybrid fusion (designed binder)”, the Experiment 1 Average Enrichment is 0.99 log2, the Experiment 1 Rep 1 Enrichment was determined as 0.9 log2, the Experiment 1 Rep 2 Enrichment was determined as 1.09 log2 and the Experiment 2 Average Enrichment was found to be 0 log2. Further, the Experiment 2 Rep 1 Enrichment came out at 0.86 log2 and the Experiment 2 Rep 2 Enrichment was -0.85 log2.
For “i53 + D52E two-hybrid fusion (designed binder)”, the Experiment 1 Average Enrichment was found to be 0.28 log2, the Experiment 1 Rep 1 Enrichment turned out to be 0.43 log2, the Experiment 1 Rep 2 Enrichment was found to be 0.14 log2 and the Experiment 2 Average Enrichment was determined as 0.04 log2. In addition, the Experiment 2 Rep 1 Enrichment is -0.3 log2 and the Experiment 2 Rep 2 Enrichment was 0.37 log2.
Substance “i53 + D58S two-hybrid fusion (designed binder)” registered an Experiment 1 Average Enrichment of 0.33 log2, an Experiment 1 Rep 1 Enrichment of 0.29 log2, an Experiment 1 Rep 2 Enrichment of 0.38 log2 and an Experiment 2 Average Enrichment of 0.21 log2. In addition, the Experiment 2 Rep 1 Enrichment turned out to be 0.24 log2 and the Experiment 2 Rep 2 Enrichment stood at 0.17 log2.
The substance “i53 + E16D two-hybrid fusion (designed binder)” returned an Experiment 1 Average Enrichment of -0.2 log2, an Experiment 1 Rep 1 Enrichment of -0.69 log2, an Experiment 1 Rep 2 Enrichment of 0.3 log2 and an Experiment 2 Average Enrichment of 0.13 log2. This substance also gave an Experiment 2 Rep 1 Enrichment of 0.42 log2 and an Experiment 2 Rep 2 Enrichment of -0.15 log2.
Take “i53 + E16H two-hybrid fusion (designed binder)”: the Experiment 1 Average Enrichment was found to be 0.03 log2, the Experiment 1 Rep 1 Enrichment worked out at 0 log2, the Experiment 1 Rep 2 Enrichment turned out to be 0.05 log2 and the Experiment 2 Average Enrichment was -0.13 log2. The same substance registered an Experiment 2 Rep 1 Enrichment of -0.21 log2 and an Experiment 2 Rep 2 Enrichment of -0.05 log2.
“i53 + E16N two-hybrid fusion (designed binder)”: the Experiment 1 Average Enrichment was 0.11 log2, the Experiment 1 Rep 1 Enrichment is -0.32 log2, the Experiment 1 Rep 2 Enrichment is 0.54 log2 and the Experiment 2 Average Enrichment turned out to be 0.26 log2. The substance further showed an Experiment 2 Rep 1 Enrichment of 0.34 log2 and an Experiment 2 Rep 2 Enrichment of 0.18 log2.
For the substance “i53 + E16T two-hybrid fusion (designed binder)”, the Experiment 1 Average Enrichment was determined as 0.88 log2, the Experiment 1 Rep 1 Enrichment amounted to 1.12 log2, the Experiment 1 Rep 2 Enrichment was 0.64 log2 and the Experiment 2 Average Enrichment came out at 0.3 log2. Further, the Experiment 2 Rep 1 Enrichment is 0.27 log2 and the Experiment 2 Rep 2 Enrichment was determined as 0.33 log2.
The substance “i53 + E16Y two-hybrid fusion (designed binder)” came in with an Experiment 1 Average Enrichment of 0.35 log2, an Experiment 1 Rep 1 Enrichment of 0.23 log2, an Experiment 1 Rep 2 Enrichment of 0.47 log2 and an Experiment 2 Average Enrichment of -0.22 log2. The substance also registered an Experiment 2 Rep 1 Enrichment of -0.32 log2 and an Experiment 2 Rep 2 Enrichment of -0.11 log2.
As to “i53 + E18C two-hybrid fusion (designed binder)”, the Experiment 1 Average Enrichment came to 0.23 log2, the Experiment 1 Rep 1 Enrichment is -0.06 log2, the Experiment 1 Rep 2 Enrichment was 0.52 log2 and the Experiment 2 Average Enrichment was -0.34 log2. Further, the Experiment 2 Rep 1 Enrichment was -0.82 log2 and the Experiment 2 Rep 2 Enrichment stood at 0.14 log2.
“i53 + E18D two-hybrid fusion (designed binder)” had an Experiment 1 Average Enrichment of -0.85 log2, an Experiment 1 Rep 1 Enrichment of -0.69 log2, an Experiment 1 Rep 2 Enrichment of -1.02 log2 and an Experiment 2 Average Enrichment of 0.14 log2. The substance further registered an Experiment 2 Rep 1 Enrichment of 1.65 log2 and an Experiment 2 Rep 2 Enrichment of -1.37 log2.
Consider “i53 + E18F two-hybrid fusion (designed binder)”, for which the Experiment 1 Average Enrichment was 0.51 log2, the Experiment 1 Rep 1 Enrichment stood at 0.09 log2, the Experiment 1 Rep 2 Enrichment worked out at 0.93 log2 and the Experiment 2 Average Enrichment turned out to be 0.54 log2. For the same substance, the Experiment 2 Rep 1 Enrichment amounted to 0.22 log2 and the Experiment 2 Rep 2 Enrichment stood at 0.87 log2.
The substance “i53 + E18H two-hybrid fusion (designed binder)” registered an Experiment 1 Average Enrichment of 1.17 log2, an Experiment 1 Rep 1 Enrichment of 0.39 log2, an Experiment 1 Rep 2 Enrichment of 1.96 log2 and an Experiment 2 Average Enrichment of 0.07 log2. Further, the Experiment 2 Rep 1 Enrichment came out at 0.24 log2 and the Experiment 2 Rep 2 Enrichment was -0.11 log2.
